First the molecules themselves.
B1: Enoyl-[acyl-carrier-protein] reductase [NADH] FabI wild type, P0AEK4 (protein)
chain: MGFLSGKRILVTGVASKLSIAYGIAQAMHREGAELAFTYQNDKLKGRVEEFAAQLGSDIVLQCDVAEDASIDTMFAELGKVWPKFDGFVHSIGFAPGDQLDGDYVNAVTREGFKIAHDISSYSFVAMAKACRSMLNPGSALLTLSYLGAERAIPNYNVMGLAKASLEANVRYMANAMGPEGVRVNAISAGPIRTLAASGIKDFRKMLAHCEAVTPIRRTVTIEDVGNSAAFLCSDLSAGISGEVVHVDGGFSIAAMNELELK
B2: NADPH-dependent 7-cyano-7-deazaguanine reductase wild type, Q46920 (protein)
chain: MSSYANHQALAGLTLGKSTDYRDTYDASLLQGVPRSLNRDPLGLKADNLPFHGTDIWTLYELSWLNAKGLPQVAVGHVELDYTSVNLIESKSFKLYLNSFNQTRFNNWDEVRQTLERDLSTCAQGKISVALYRLDELEGQPIGHFNGTCIDDQDITIDNYEFTTDYLENATCGEKVVEETLVSHLLKSNCLITHQPDWGSLQIQYRGRQIDREKLLRYLVSFRHHNEFHEQCVERIFNDLLRFCQPEKLSVYARYTRRGGLDINPWRSNSDFVPSTTRLVRQ
B3: Multidrug efflux pump subunit AcrA wild type, P0AE06 (protein)
chain: MNKNRGFTPLAVVLMLSGSLALTGCDDKQAQQGGQQMPAVGVVTVKTEPLQITTELPGRTSAYRIAEVRPQVSGIILKRNFKEGSDIEAGVSLYQIDPATYQATYDSAKGDLAKAQAAANIAQLTVNRYQKLLGTQYISKQEYDQALADAQQANAAVTAAKAAVETARINLAYTKVTSPISGRIGKSNVTEGALVQNGQATALATVQQLDPIYVDVTQSSNDFLRLKQELANGTLKQENGKAKVSLITSDGIKFPQDGTLEFSDVTVDQTTGSITLRAIFPNPDHTLLPGMFVRARLEEGLNPNAILVPQQGVTRTPRGDATVLVVGADDKVETRPIVASQAIGDKWLVTEGLKAGDRVVISGLQKVRPGVQVKAQEVTADNNQQAASGAQPEQSKS
B4: Acetylornithine deacetylase wild type, P23908 (protein)
chain: MKNKLPPFIEIYRALIATPSISATEEALDQSNADLITLLADWFKDLGFNVEVQPVPGTRNKFNMLASIGQGAGGLLLAGHTDTVPFDDGRWTRDPFTLTEHDGKLYGLGTADMKGFFAFILDALRDVDVTKLKKPLYILATADEETSMAGARYFAETTALRPDCAIIGEPTSLQPVRAHKGHISNAIRIQGQSGHSSDPARGVNAIELMHDAIGHILQLRDNLKERYHYEAFTVPYPTLNLGHIHGGDASNRICACCELHMDIRPLPGMTLNELNGLLNDALAPVSERWPGRLTVDELHPPIPGYECPPNHQLVEVVEKLLGAKTEVVNYCTEAPFIQTLCPTLVLGPGSINQAHQPDEYLETRFIKPTRELITQVIHHFCWH
B5: NH(3)-dependent NAD(+) synthetase wild type, P18843 (protein)
chain: MTLQQQIIKALGAKPQINAEEEIRRSVDFLKSYLQTYPFIKSLVLGISGGQDSTLAGKLCQMAINELRLETGNESLQFIAVRLPYGVQADEQDCQDAIAFIQPDRVLTVNIKGAVLASEQALREAGIELSDFVRGNEKARERMKAQYSIAGMTSGVVVGTDHAAEAITGFFTKYGDGGTDINPLYRLNKRQGKQLLAALACPEHLYKKAPTADLEDDRPSLPDEVALGVTYDNIDDYLEGKNVPQQVARTIENWYLKTEHKRRPPITVFDDFWKK
B6: Nicotinate phosphoribosyltransferase wild type, P18133 (protein)
chain: MTQFASPVLHSLLDTDAYKLHMQQAVFHHYYDVHVAAEFRCRGDDLLGIYADAIREQVQAMQHLRLQDDEYQWLSALPFFKADYLNWLREFRFNPEQVTVSNDNGKLDIRLSGPWREVILWEVPLLAVISEMVHRYRSPQADVAQALDTLESKLVDFSALTAGLDMSRFHLMDFGTRRRFSREVQETIVKRLQQESWFVGTSNYDLARRLSLTPMGTQAHEWFQAHQQISPDLANSQRAALAAWLEEYPDQLGIALTDCITMDAFLRDFGVEFASRYQGLRHDSGDPVEWGEKAIAHYEKLGIDPQSKTLVFSDNLDLRKAVELYRHFSSRVQLSFGIGTRLTCDIPQVKPLNIVIKLVECNGKPVAKLSDSPGKTICHDKAFVRALRKAFDLPHIKKAS
B7: HTH-type transcriptional repressor PurR wild type, P0ACP7 (protein)
chain: MATIKDVAKRANVSTTTVSHVINKTRFVAEETRNAVWAAIKELHYSPSAVARSLKVNHTKSIGLLATSSEAAYFAEIIEAVEKNCFQKGYTLILGNAWNNLEKQRAYLSMMAQKRVDGLLVMCSEYPEPLLAMLEEYRHIPMVVMDWGEAKADFTDAVIDNAFEGGYMAGRYLIERGHREIGVIPGPLERNTGAGRLAGFMKAMEEAMIKVPESWIVQGDFEPESGYRAMQQILSQPHRPTAVFCGGDIMAMGALCAADEMGLRVPQDVSLIGYDNVRNARYFTPALTTIHQPKDSLGETAFNMLLDRIVNKREEPQSIEVHPRLIERRSVADGPFRDYRR
B8: Transcriptional regulatory protein PhoP wild type, P23836 (protein)
chain: MRVLVVEDNALLRHHLKVQIQDAGHQVDDAEDAKEADYYLNEHIPDIAIVDLGLPDEDGLSLIRRWRSNDVSLPILVLTARESWQDKVEVLSAGADDYVTKPFHIEEVMARMQALMRRNSGLASQVISLPPFQVDLSRRELSINDEVIKLTAFEYTIMETLIRNNGKVVSKDSLMLQLYPDAELRESHTIDVLMGRLRKKIQAQYPQEVITTVRGQGYLFELR
B9: Acyl-CoA thioester hydrolase YciA wild type, P0A8Z0 (protein)
chain: MSTTHNVPQGDLVLRTLAMPADTNANGDIFGGWLMSQMDIGGAILAKEIAHGRVVTVRVEGMTFLRPVAVGDVVCCYARCVQKGTTSVSINIEVWVKKVASEPIGQRYKATEALFKYVAVDPEGKPRALPVE
B10: Homoserine O-succinyltransferase wild type, P07623 (protein)
chain: MPIRVPDELPAVNFLREENVFVMTTSRASGQEIRPLKVLILNLMPKKIETENQFLRLLSNSPLQVDIQLLRIDSRESRNTPAEHLNNFYCNFEDIQDQNFDGLIVTGAPLGLVEFNDVAYWPQIKQVLEWSKDHVTSTLFVCWAVQAALNILYGIPKQTRTEKLSGVYEHHILHPHALLTRGFDDSFLAPHSRYADFPAALIRDYTDLEILAETEEGDAYLFASKDKRIAFVTGHPEYDAQTLAQEFFRDVEAGLDPDVPYNYFPHNDPQNTPRASWRSHGNLLFTNWLNYYVYQITPYDLRHMNPTLD
B11: Transcriptional repressor MprA wild type, P0ACR9 (protein)
chain: MDSSFTPIEQMLKFRASRHEDFPYQEILLTRLCMHMQSKLLENRNKMLKAQGINETLFMALITLESQENHSIQPSELSCALGSSRTNATRIADELEKRGWIERRESDNDRRCLHLQLTEKGHEFLREVLPPQHNCLHQLWSALSTTEKDQLEQITRKLLSRLDQMEQDGVVLEAMS
B12: Ribosome-recycling factor wild type, P0A805 (protein)
chain: MISDIRKDAEVRMDKCVEAFKTQISKIRTGRASPSLLDGIVVEYYGTPTPLRQLASVTVEDSRTLKINVFDRSMSPAVEKAIMASDLGLNPNSAGSDIRVPLPPLTEERRKDLTKIVRGEAEQARVAVRNVRRDANDKVKALLKDKEISEDDDRRSQDDVQKLTDAAIKKIEAALADKEAELMQF
B13: Pyruvate formate-lyase 1-activating enzyme wild type, P0A9N4 (protein)
chain: MSVIGRIHSFESCGTVDGPGIRFITFFQGCLMRCLYCHNRDTWDTHGGKEVTVEDLMKEVVTYRHFMNASGGGVTASGGEAILQAEFVRDWFRACKKEGIHTCLDTNGFVRRYDPVIDELLEVTDLVMLDLKQMNDEIHQNLVGVSNHRTLEFAKYLANKNVKVWIRYVVVPGWSDDDDSAHRLGEFTRDMGNVEKIELLPYHELGKHKWVAMGEEYKLDGVKPPKKETMERVKGILEQYGHKVMF
B14: Ribosomal protein uL3 glutamine methyltransferase wild type, P39199 (protein)
chain: MDKIFVDEAVNELQTIQDMLRWSVSRFSAANIWYGHGTDNPWDEAVQLVLPSLYLPLDIPEDMRTARLTSSEKHRIVERVIRRVNERIPVAYLTNKAWFCGHEFYVDERVLVPRSPIGELINNKFAGLISKQPQHILDMCTGSGCIAIACAYAFPDAEVDAVDISPDALAVAEQNIEEHGLIHNVIPIRSDLFRDLPKVQYDLIVTNPPYVDAEDMSDLPNEYRHEPELGLASGTDGLKLTRRILGNAADYLADDGVLICEVGNSMVHLMEQYPDVPFTWLEFDNGGDGVFMLTKEQLIAAREHFAIYKD
B15: tRNA pseudouridine synthase D wild type, Q57261 (protein)
chain: MIEFDNLTYLHGKPQGTGLLKANPEDFVVVEDLGFEPDGEGEHILVRILKNGCNTRFVADALAKFLKIHAREVSFAGQKDKHAVTEQWLCARVPGKEMPDLSAFQLEGCQVLEYARHKRKLRLGALKGNAFTLVLREVSNRDDVEQRLIDICVKGVPNYFGAQRFGIGGSNLQGAQRWAQTNTPVRDRNKRSFWLSAARSALFNQIVAERLKKADVNQVVDGDALQLAGRGSWFVATTEELAELQRRVNDKELMITAALPGSGEWGTQREALAFEQAAVAAETELQALLVREKVEAARRAMLLYPQQLSWNWWDDVTVEIRFWLPAGSFATSVVRELINTTGDYAHIAE
B16: Uncharacterized protein YjaG wild type, P32680 (protein)
chain: MLQNPIHLRLERLESWQHVTFMACLCERMYPNYAMFCQQTGFGDGQIYRRILDLIWETLTVKDAKVNFDSQLEKFEEAIPSADDFDLYGVYPAIDACVALSELVHSRLSGETLEHAVEVSKTSITTVAMLEMTQAGREMSDEELKENPAVEQEWDIQWEIFRLLAECEERDIELIKGLRADLREAGESNIGIIFQQ
B17: Zinc chaperone YeiR wild type, P33030 (protein)
chain: MTRTNLITGFLGSGKTTSILHLLAHKDPNEKWAVLVNEFGEVGIDGALLADSGALLKEIPGGCMCCVNGLPMQVGLNTLLRQGKPDRLLIEPTGLGHPKQILDLLTAPVYEPWIDLRATLCILDPRLLLDEKSASNENFRDQLAAADIIVANKSDRTTPESEQALQRWWQQNGGDRQLIHSEHGKVDGHLLDLPRRNLAELPASAAHSHQHVVKKGLAALSLPEHQRWRRSLNSGQGYQACGWIFDADTVFDTIGILEWARLAPVERVKGVLRIPEGLVRINRQGDDLHIETQNVAPPDSRIELISSSEADWNALQSALLKLRLATTA

The conditions of this series: Escherichia coli (strain K12); pH 7.5; Thermal; Intensity; HEPES 20mM; transition: 2; whole UniProt chain shown.
As to B1, the Tm (usually the temperature at which the thermal transition is half complete) turned out to be 45.3 °C.

With B2, the Tm is 43.9 °C.

On to B3, for which the Tm worked out at 45.7 °C.

For the protein B4, the Tm stood at 45.9 °C.

Consider B5, for which the Tm turned out to be 45.1 °C.

With B6, the Tm was 45.7 °C.

Turning to B7, the Tm is 45.6 °C.

Regarding B8, the Tm is 42.6 °C.

For B9, the Tm was 46.3 °C.

With B10, the Tm was 45.7 °C.

On to B11, for which the Tm amounted to 45.9 °C.

Take B12: the Tm was found to be 44.4 °C.

With B13, the Tm was determined as 43.4 °C.

On to B14, for which the Tm was 45.5 °C.

With B15, the Tm was determined as 43.8 °C.

Regarding B16, the midpoint of thermal melting (Tm) is 46.1 °C.

Turning to B17, the Tm was found to be 46.2 °C.
